{
  "source": "paper PMC6800154",
  "key": {"[1]": {"target": "YFP-FAK (mouse) (UniProt P34152)", "sequence (P34152 whole entry)": "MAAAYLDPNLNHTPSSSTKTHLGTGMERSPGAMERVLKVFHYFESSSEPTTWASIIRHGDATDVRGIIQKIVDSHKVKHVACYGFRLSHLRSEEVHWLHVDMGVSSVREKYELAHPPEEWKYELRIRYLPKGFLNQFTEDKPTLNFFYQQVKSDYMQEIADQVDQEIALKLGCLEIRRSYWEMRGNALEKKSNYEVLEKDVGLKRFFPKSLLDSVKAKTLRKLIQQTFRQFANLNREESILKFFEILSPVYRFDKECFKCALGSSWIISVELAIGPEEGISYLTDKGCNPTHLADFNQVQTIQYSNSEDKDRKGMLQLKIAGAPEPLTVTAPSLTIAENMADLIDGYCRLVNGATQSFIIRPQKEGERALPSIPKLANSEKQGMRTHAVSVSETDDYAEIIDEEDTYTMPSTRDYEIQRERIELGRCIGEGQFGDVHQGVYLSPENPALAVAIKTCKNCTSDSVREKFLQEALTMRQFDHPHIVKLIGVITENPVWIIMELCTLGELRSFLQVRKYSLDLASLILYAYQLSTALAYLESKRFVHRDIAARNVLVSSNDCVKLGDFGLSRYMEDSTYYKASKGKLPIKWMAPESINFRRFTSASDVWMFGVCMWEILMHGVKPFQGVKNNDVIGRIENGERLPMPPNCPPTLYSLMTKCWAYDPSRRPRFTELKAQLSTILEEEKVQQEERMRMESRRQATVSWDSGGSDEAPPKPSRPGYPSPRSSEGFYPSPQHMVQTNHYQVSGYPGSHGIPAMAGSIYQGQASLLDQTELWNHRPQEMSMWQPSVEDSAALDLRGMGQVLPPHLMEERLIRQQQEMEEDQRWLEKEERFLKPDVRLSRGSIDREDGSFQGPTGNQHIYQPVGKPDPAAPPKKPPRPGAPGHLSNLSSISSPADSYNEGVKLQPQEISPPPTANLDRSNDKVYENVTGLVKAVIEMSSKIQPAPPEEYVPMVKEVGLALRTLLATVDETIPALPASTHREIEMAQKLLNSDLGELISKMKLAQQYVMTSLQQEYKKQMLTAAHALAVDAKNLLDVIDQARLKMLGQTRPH", "assay": "FRET or BRET"}, "[2]": {"target": "Focal adhesion kinase (FAK), endogenous in rat aortic smooth muscle cells (rat (endogenous in RASMs)) (UniProt O35346)", "sequence (O35346 whole entry)": "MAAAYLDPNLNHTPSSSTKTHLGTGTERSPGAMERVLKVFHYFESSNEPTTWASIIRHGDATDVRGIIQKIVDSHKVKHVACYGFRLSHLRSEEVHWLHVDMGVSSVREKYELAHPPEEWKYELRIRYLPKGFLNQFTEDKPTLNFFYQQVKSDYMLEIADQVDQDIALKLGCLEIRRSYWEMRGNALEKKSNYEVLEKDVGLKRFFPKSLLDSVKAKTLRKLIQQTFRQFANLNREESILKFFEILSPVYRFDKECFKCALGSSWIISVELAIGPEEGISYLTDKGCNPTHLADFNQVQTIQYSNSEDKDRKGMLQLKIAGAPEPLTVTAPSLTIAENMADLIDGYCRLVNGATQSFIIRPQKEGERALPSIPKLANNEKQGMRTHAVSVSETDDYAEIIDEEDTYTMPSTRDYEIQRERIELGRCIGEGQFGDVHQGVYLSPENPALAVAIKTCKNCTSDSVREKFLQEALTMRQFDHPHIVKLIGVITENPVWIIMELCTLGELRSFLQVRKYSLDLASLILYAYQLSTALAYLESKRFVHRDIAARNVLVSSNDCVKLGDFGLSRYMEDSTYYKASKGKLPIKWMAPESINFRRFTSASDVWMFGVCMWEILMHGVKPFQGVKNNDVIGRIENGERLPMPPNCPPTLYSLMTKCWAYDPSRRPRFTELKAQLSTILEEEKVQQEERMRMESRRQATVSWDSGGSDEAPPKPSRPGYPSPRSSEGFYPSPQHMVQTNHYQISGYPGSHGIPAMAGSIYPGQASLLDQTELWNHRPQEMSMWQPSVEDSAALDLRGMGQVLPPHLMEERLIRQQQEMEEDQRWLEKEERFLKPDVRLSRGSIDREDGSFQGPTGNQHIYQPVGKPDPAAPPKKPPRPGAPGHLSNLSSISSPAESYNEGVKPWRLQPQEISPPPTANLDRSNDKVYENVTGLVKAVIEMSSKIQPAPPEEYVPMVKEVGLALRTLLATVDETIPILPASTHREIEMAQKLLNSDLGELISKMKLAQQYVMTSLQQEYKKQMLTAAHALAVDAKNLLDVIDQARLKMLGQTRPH", "assay": "co-IP"}},
  "data": [
    {"substance": "cyan fluorescent protein (CFP) S217A-FRNK (natural protein)", "values": [
      {"measurement": "FRET efficiency", "setting": "[1]", "result": 53, "unit": "%"},
      {"measurement": "fold co-immunoprecipitation against WT-FRNK", "setting": "[2]", "result": 5, "unit": "fold"}
    ]}
  ]
}
